T1: IKKα (human (endogenous in A549), UniProt O15111 1-745)
T1 construct: also called CHUK; source: endogenous, A549 cells (M-PER lysate for the pull-down; fixed, permeabilised cells for FRET)
T1 sequence (looked up): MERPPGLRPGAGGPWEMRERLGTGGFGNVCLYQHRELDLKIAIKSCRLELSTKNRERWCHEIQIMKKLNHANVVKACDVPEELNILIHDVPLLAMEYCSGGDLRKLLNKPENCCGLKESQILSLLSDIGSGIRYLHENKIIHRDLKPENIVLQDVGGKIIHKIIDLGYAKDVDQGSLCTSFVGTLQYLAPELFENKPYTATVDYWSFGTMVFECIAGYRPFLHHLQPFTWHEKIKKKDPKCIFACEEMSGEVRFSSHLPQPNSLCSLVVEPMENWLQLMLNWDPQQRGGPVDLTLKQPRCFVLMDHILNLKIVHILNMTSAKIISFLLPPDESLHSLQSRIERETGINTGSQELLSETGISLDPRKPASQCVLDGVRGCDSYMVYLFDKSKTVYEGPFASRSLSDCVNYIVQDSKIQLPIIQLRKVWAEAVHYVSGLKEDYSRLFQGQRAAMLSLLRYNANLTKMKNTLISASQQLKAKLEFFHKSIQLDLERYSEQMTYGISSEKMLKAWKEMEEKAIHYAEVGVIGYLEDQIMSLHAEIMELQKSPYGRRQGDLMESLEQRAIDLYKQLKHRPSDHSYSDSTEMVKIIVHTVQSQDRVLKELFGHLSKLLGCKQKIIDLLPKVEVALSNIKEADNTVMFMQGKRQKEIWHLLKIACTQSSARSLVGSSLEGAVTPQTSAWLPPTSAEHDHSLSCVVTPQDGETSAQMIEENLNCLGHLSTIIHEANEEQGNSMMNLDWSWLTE

B1: IKKβ (natural protein, human (endogenous in A549), UniProt O14920 1-756, looked up)
chain: MSWSPSLTTQTCGAWEMKERLGTGGFGNVIRWHNQETGEQIAIKQCRQELSPRNRERWCLEIQIMRRLTHPNVVAARDVPEGMQNLAPNDLPLLAMEYCQGGDLRKYLNQFENCCGLREGAILTLLSDIASALRYLHENRIIHRDLKPENIVLQQGEQRLIHKIIDLGYAKELDQGSLCTSFVGTLQYLAPELLEQQKYTVTVDYWSFGTLAFECITGFRPFLPNWQPVQWHSKVRQKSEVDIVVSEDLNGTVKFSSSLPYPNNLNSVLAERLEKWLQLMLMWHPRQRGTDPTYGPNGCFKALDDILNLKLVHILNMVTGTIHTYPVTEDESLQSLKARIQQDTGIPEEDQELLQEAGLALIPDKPATQCISDGKLNEGHTLDMDLVFLFDNSKITYETQISPRPQPESVSCILQEPKRNLAFFQLRKVWGQVWHSIQTLKEDCNRLQQGQRAAMMNLLRNNSCLSKMKNSMASMSQQLKAKLDFFKTSIQIDLEKYSEQTEFGITSDKLLLAWREMEQAVELCGRENEVKLLVERMMALQTDIVDLQRSPMGRKQGGTLDDLEEQARELYRRLREKPRDQRTEGDSQEMVRLLLQAIQSFEKKVRVIYTQLSKTVVCKQKALELLPKVEEVVSLMNEDEKTVVRLQEKRQKELWNLLKIACSKVRGPVSGSPDSMNASRLSQPGQLMSQPSTASNSLPEPAKKSEELVAEAHNLCTLLENAIQDTVREQDQSFTALDWSWLQTEEEEHSCLEQAS
notes: also called IKBKB; source: endogenous, A549 cells (M-PER lysate for the pull-down; fixed, permeabilised cells for FRET)

Key:
Assay in all cases: FRET or BRET; corrected FRET between fluorophore-labelled secondary antibodies (Alexa 488:Cy3, Cy3:Cy5) on primary antibodies, indirect immunofluorescence of acetone/methanol-fixed resting A549 cells, deconvolved Z-stacks; epitopes within about 30 nm; FRETN = cFRET normalised to the acceptor's emission, mean of four sets of experiments
[1] = biological target: IKKβ (human (endogenous in A549)) (UniProt O14920)
[2] = biological target: IKKα (human (endogenous in A549)) (UniProt O15111)
[3] = biological target: T1, IKKα; conditions: partners not purified
[4] = biological target: B1; conditions: partners not purified

Row | normalized FRET (FRETN) [1] | normalized FRET (FRETN) [2] | normalized FRET (FRETN) [3] | normalized FRET (FRETN) [4] | Molecule
1 | 0.632 | 0.3 |  |  | heat-shock protein-90 (from UniProt P07900 1-732) (natural protein)
2 |  |  | 0.362 |  | B1
3 |  |  | 0.7 | 0.522 | clathrin heavy chain 1 (natural protein, human (endogenous in A549), UniProt Q00610 1-1675, looked up, clathrin heavy chain 1 (CLTC), human, SwissProt entry name CLH1_HUMAN; also called CHC; CLH1; source: endogenous, A549 cells (M-PER lysate for the pull-down; fixed, permeabilised cells for FRET)) MAQILPIRFQEHLQLQNLGINPANIGFSTLTMESDKFICIREKVGEQAQVVIIDMNDPSNPIRRPISADSAIMNPASKVIALKAGKTLQIFNIEMKSKMKAHTMTDDVTFWKWISLNTVALVTDNAVYHWSMEGESQPVKMFDRHSSLAGCQIINYRTDAKQKWLLLTGISAQQNRVVGAMQLYSVDRKVSQPIEGHAASFAQFKMEGNAEESTLFCFAVRGQAGGKLHIIEVGTPPTGNQPFPKKAVDVFFPPEAQNDFPVAMQISEKHDVVFLITKYGYIHLYDLETGTCIYMNRISGETIFVTAPHEATAGIIGVNRKGQVLSVCVEEENIIPYITNVLQNPDLALRMAVRNNLAGAEELFARKFNALFAQGNYSEAAKVAANAPKGILRTPDTIRRFQSVPAQPGQTSPLLQYFGILLDQGQLNKYESLELCRPVLQQGRKQLLEKWLKEDKLECSEELGDLVKSVDPTLALSVYLRANVPNKVIQCFAETGQVQKIVLYAKKVGYTPDWIFLLRNVMRISPDQGQQFAQMLVQDEEPLADITQIVDVFMEYNLIQQCTAFLLDALKNNRPSEGPLQTRLLEMNLMHAPQVADAILGNQMFTHYDRAHIAQLCEKAGLLQRALEHFTDLYDIKRAVVHTHLLNPEWLVNYFGSLSVEDSLECLRAMLSANIRQNLQICVQVASKYHEQLSTQSLIELFESFKSFEGLFYFLGSIVNFSQDPDVHFKYIQAACKTGQIKEVERICRESNCYDPERVKNFLKEAKLTDQLPLIIVCDRFDFVHDLVLYLYRNNLQKYIEIYVQKVNPSRLPVVIGGLLDVDCSEDVIKNLILVVRGQFSTDELVAEVEKRNRLKLLLPWLEARIHEGCEEPATHNALAKIYIDSNNNPERFLRENPYYDSRVVGKYCEKRDPHLACVAYERGQCDLELINVCNENSLFKSLSRYLVRRKDPELWGSVLLESNPYRRPLIDQVVQTALSETQDPEEVSVTVKAFMTADLPNELIELLEKIVLDNSVFSEHRNLQNLLILTAIKADRTRVMEYINRLDNYDAPDIANIAISNELFEEAFAIFRKFDVNTSAVQVLIEHIGNLDRAYEFAERCNEPAVWSQLAKAQLQKGMVKEAIDSYIKADDPSSYMEVVQAANTSGNWEELVKYLQMARKKARESYVETELIFALAKTNRLAELEEFINGPNNAHIQQVGDRCYDEKMYDAAKLLYNNVSNFGRLASTLVHLGEYQAAVDGARKANSTRTWKEVCFACVDGKEFRLAQMCGLHIVVHADELEELINYYQDRGYFEELITMLEAALGLERAHMGMFTELAILYSKFKPQKMREHLELFWSRVNIPKVLRAAEQAHLWAELVFLYDKYEEYDNAIITMMNHPTDAWKEGQFKDIITKVANVELYYRAIQFYLEFKPLLLNDLLMVLSPRLDHTRAVNYFSKVKQLPLVKPYLRSVQNHNNKSVNESLNNLFITEEDYQALRTSIDAYDNFDNISLAQRLEKHELIEFRRIAAYLFKGNNRWKQSVELCKKDSLYKDAMQYASESKDTELAEELLQWFLQEEKRECFGACLFTCYDLLRPDVVLETAWRHNIMDFAMPYFIQVMKEYLTKVDKLDASESLRKEEEQATETQPIVYGQPQLMLTAGPSVAVPPQAPFGYGYTAPPYGQPQPGFGYSM

Source: paper PMC4187570, “Clathrin complexes with the inhibitor kappa B kinase signalosome: imaging the interactome” (Physiological Reports, 2014)
